From patent JP2023053786A (dated 2023)

T1: HBs抗原(Prosec Tany Technology Ltd. HBS 875), biotinylated (Hepatitis B virus (adr型), UniProt P03140 175-400, biotinylated with EZ-Link NHS-PEG4-biotin (sites not given))
T1 construct: also called ビオチン化HBs抗原; adr型HBs抗原(PROSPEC社製)
T1 chain: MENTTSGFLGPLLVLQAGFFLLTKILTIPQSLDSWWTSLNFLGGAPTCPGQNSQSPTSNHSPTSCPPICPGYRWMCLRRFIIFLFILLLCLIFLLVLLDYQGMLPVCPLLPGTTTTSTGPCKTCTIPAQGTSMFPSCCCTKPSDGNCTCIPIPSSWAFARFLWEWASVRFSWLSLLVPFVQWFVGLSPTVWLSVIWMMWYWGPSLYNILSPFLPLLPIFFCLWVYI


Columns and labels:
[1] = molecular target: T1, HBs抗原(Prosec Tany Technology Ltd. HBS …; assay: BLI (Octet), as in Example 3: biotinylated HBs antigen on streptavidin sensor
[2] = molecular target: T1, HBs抗原(Prosec Tany Technology Ltd. HBS …; assay: BLI (Octet RED96e), biotinylated HBs antigen on streptavidin sensor, antibody in solution

| Binder | Kd [1] | Kd [2] |
| --- | --- | --- |
| ヒト化HB1170 (antibody, V domains shown, also called humanized HB1170; ヒト化したモノクローナル抗体HB1170) VH: QVQLVQSGSELKKPGASVKVSCKASGYTFTDFSMHWVRQAPGQGLKWMGWIDTETGEPTNADDFKGRFVFSLDTSVSTAYLQISSLKAEDTAVYYCARKDYELGTWFVYWGQGTTVTVSS VL: DIQMTQSPSSLSASVGDRVTITCRASQDISNFLNWYQQKPGKAPKLLIYYTSRLHSGVPSRFSGSGSGTDYTLTISSLQPEDFATYYCQQGKTLPRTFGGGTKVEIK | ~3 nM |  |
| クローンHB1170 (mouse monoclonal HBs antigen-binding antibody) (antibody, V domains shown, Mouse hybridoma antibody; also called HB1170; HB1170クローン) VH: QIQLVQSGPELKKPGETVKISCKASGYTFTDFSMHWVKQAPGKGLKWMGWIDTETGEPTNADDFKGRFVFSLETSASAAYLQIHNLKNDDTATYFCARKDYELGTWFVYWGQGTLVTVST VL: DIQMTQTTSSLSASLGDRVTISCRASQDISNFLNWYQQKPDGTVKLLIYYTSRLHSGVPSRFSGSGSGTDYSLTISNLEQEDFATYFCQQGKTLPRTFGGGTILEIK |  | ~3 nM |
| クローンHB351 (mouse monoclonal HBs antigen-binding antibody) (antibody, V domains shown, Mouse hybridoma antibody; The 91/92 assignment follows the order HB351, HB1170, HB1215 = (1), (2), (3); also called HB351; クローン351) VH: EIQLQQSGAELVKPGASVKLSCTASGFNIKDTYMYWVKQRPEQGLEWIGRIDPANGDTKYDPNFQGKATITADPSSNTAYLQLTSLTSEDTAVYYCARDDYDGAMDYWGRGTSVTVSS VL: QIVLTQSPAIMSASPGERVTMTCSASSTVNYMYWYQQKPGSSPRLLNFDTSNLASGVPVRFSGSGSGTSYSLTISRMEAEDAATYYCQRWSTYPPITFGSGTKLEIK |  | ~0.3 nM |
| ヒト化HB351 (antibody, V domains shown, also called humanized HB351; ヒト化したモノクローナル抗体HB351) VH: EVQLVQSGAEVKKPGATVKISCKVSGFNIKDTYMYWVQQAPGKGLEWIGRIDPANGDTKYDPNFQGRVTITADTSTDTAYMELSSLRSEDTAVYYCARDDYDGAMDYWGQGTLVTVSS VL: EIVLTQSPATLSLSPGERATLSCSASSTVNYMYWYQQKPGQAPRLLNFDTSNLASGIPARFSGSGSGTDFTLTISSLEPEDFAVYYCQRWSTYPPITFGQGTKLEIK | ~0.3 nM |  |
| クローンHB1215 (mouse monoclonal HBs antigen-binding antibody) (antibody, V domains shown, Mouse hybridoma antibody; also called HB1215; HB1215クローン) VH: QVQLKQSGPGLVQPSQSLSLTCTVSGFSLATYGVQWVRQSPGKGLEWLGVIWRGGNTDYNAAFMSRLSITKDNSKSQVFFKMNSLQGDDTAIYYCAKATYFDVWGAGTTVTVSS VL: QAVVTQESALTTSPGETVTLTCRSSTGAVTTSNFANWVQEKPDHLFTGLIGDTNNRAPGVPARFSGSLIGDKAALTITGAQTEDEAIYFCALWYNNWVFGGGTKLTVL |  | ~0.3 nM |
